Data on five molecules can be found in article PMC2881571 (Molecular microbiology, 2009).

In series [1] the target is T1, 6His-OspR (Pseudomonas aeruginosa MPAO1, UniProt Q9I018 1-163).
T1 sequence: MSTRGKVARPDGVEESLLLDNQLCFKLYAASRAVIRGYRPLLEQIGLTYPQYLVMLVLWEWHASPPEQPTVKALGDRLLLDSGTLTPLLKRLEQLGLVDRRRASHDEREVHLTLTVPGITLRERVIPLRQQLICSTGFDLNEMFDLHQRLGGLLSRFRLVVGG
Description: EMSA.

The series “cross-linking” concerns the molecule itself. Description: cross-linking.
Series [2] deals with T1, 6His-OspR. Kind of series: EMSA. This is another data set of the same source. Background: In EMSA bound probe runs differently from free probe, usually more slowly.
Another series addresses T2, 6His-OspR C24S (Pseudomonas aeruginosa MPAO1, UniProt Q9I018 1-163, C24S).
T2 sequence: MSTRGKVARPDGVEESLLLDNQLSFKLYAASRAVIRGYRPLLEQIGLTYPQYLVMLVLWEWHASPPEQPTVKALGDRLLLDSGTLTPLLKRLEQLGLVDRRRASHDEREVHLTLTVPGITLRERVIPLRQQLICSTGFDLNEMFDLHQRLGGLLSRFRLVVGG
Description: EMSA.

Read-outs that look alike come from different tables or passages of the source.

B1: B2d (B2 lacking AATTnAATT, 34 bp) (dsDNA)
DNA 1: TTCAATCAAGTTGTGTGCGCGAGCTACTTTATTT
DNA 2: AAATAAAGTAGCTCGCGCACACAACTTGATTGAA
On to B1, for which, in the series with 6His-OspR [1], the binding result is on record as “no binding”.

B2: 6His-OspR C24S (natural protein, Pseudomonas aeruginosa MPAO1, UniProt Q9I018 1-163, looked up)
chain: MSTRGKVARPDGVEESLLLDNQLSFKLYAASRAVIRGYRPLLEQIGLTYPQYLVMLVLWEWHASPPEQPTVKALGDRLLLDSGTLTPLLKRLEQLGLVDRRRASHDEREVHLTLTVPGITLRERVIPLRQQLICSTGFDLNEMFDLHQRLGGLLSRFRLVVGG
With B2, the binding result in “cross-linking” is given as “binds”.

B3: hmgA-p (PA2009-PA2010 intergenic, 70 bp) (dsDNA)
DNA 1: TGGCACGCTGGCTGCGTTATTTTTATCGTAATTCAATTACGCATAACGTAATTTGAGTGGAAGGCAGCGT
DNA 2: ACGCTGCCTTCCACTCAAATTACGTTATGCGTAATTGAATTACGATAAAAATAACGCAGCCAGCGTGCCA
In the case of B3, the binding result in the series with 6His-OspR [1] is recorded as “binds”.

B4: PA1897-p (70 bp) (dsDNA)
DNA 1: GGCAGGTTGTCCCTGCCGGGCTGTGACAATTTAATTCGACCAGGCATTTCATTGTCCGTGCCGATTTTCA
DNA 2: TGAAAATCGGCACGGACAATGAAATGCCTGGTCGAATTAAATTGTCACAGCCCGGCAGGGACAACCTGCC
Regarding B4, the binding result with 6His-OspR [1] is on record as “binds”.

B5: B2 (PA2826 promoter, 43 bp) (dsDNA)
DNA 1: TTCAATCAAGTTGTGTGCAATTGAATTGCGAGCTACTTTATTT
DNA 2: AAATAAAGTAGCTCGCAATTCAATTGCACACAACTTGATTGAA
Take B5: the binding result in the series with 6His-OspR [2] and in the series with 6His-OspR C24S was “binds” throughout.
